Biological target: fluorescein-labeled SC pseudorepeat-repeat-1 peptide PR-R1[5F] (S. aureus)
Test: other fluorescence titration

fibrinogen fragment D (domain or fragment)
Kd: 36 nM
stoichiometry N (mol of fragment D/mol of peptide): 0.77

Source: PMC3169740
